This series can be described thus: protein stability index of a GFP-peptide fusion (GPS, HEK-293T) (PSI 1-6); higher = more stable.
Where [1] appears, read: treatment: DMSO, c terminus: a fixed tail appended.
The mark [2] stands for this setting: treatment: MLN4924 1 uM, 8 h, c terminus: a fixed tail appended.
Where [3] appears, read: treatment: DMSO, c terminus: native.
The mark [4] stands for this setting: treatment: MLN4924 1 uM, 8 h, c terminus: native.

We go through 72 sequences from the supplement of paper PMC10567573.

± gives the standard deviation.
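Also: 24-mer peptide tiles fused after GFP, lentivirally expressed, FACS-sorted into six equal bins by GFP/DsRed ratio, decoded by Illumina sequencing, PSI is the read-weighted mean bin number.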

Consider GAGLLSSISELKHALSGHAKVKPF [TPH1], for which the protein stability index by setting is: under setting [1], 2.86 ± 0.095; under setting [2], 3.02 ± 0.12.

Consider GALQIEQSEESDQGKYECVATNSA [PTPRD], for which the protein stability index reads like this: under setting [1], 5.18 ± 0.097; under setting [2], 5.39 ± 0.31.

Take GDRLNVEVDAAPPVDLNKILEDMR [KRT36]: the protein stability index runs as follows: under setting [1], 4.24 ± 0.4; under setting [2], 4.323 ± 0.035.

Turning to GEEQTQNPYTELLVLKAHHDIVRF [WDR41], the protein stability index runs as follows: under setting [1], 2.51 ± 0.32; under setting [2], 2.79 ± 0.3.

GEHKDRIERQWGNLLGEGQHKCDE [ZSCAN9] yielded a protein stability index under setting [1] of 4.88 ± 0.4 and a protein stability index under setting [2] of 4.93 ± 0.14.

In the case of GEVEEEADSCFGDDEDDSGTEES [CDC34], the protein stability index reads like this: under setting [3], 5.25 ± 0.37; under setting [4], 5.29 ± 0.15.

GFRYSERYDPEPKSKWDEEWDKNK [CLINT1] gave a protein stability index under setting [1] of 3.73 ± 0.24 and a protein stability index under setting [2] of 3.78 ± 0.29.

As to GFYFEVCGMMVESVNAKTLMSRI [PCDHGA10], the protein stability index came to 2.81 ± 0.26 under setting [3] and 2.41 ± 1 under setting [4].

On to GGGDEDGSLGSRAEPAPRAREGGG [SMAD6], for which the protein stability index stood at 5.55 ± 0.17 under setting [1] and 5.51 ± 0.4 under setting [2].

With GGGMRVCGFGGGAGSVFGGGFGGG [KRT15], the protein stability index is, setting by setting: under setting [1], 2.03 ± 0.33; under setting [2], 1.94 ± 0.24.

Regarding GGKGHHLPSENLGKEPLDPDPSHS [TOR1AIP2], the protein stability index stood at 5.456 ± 0.051 under setting [1] and 5.15 ± 0.14 under setting [2].

In the case of GGPGGPGSDKQQQQQHIECVVCGD [NR2F2], the protein stability index was determined as 5.02 ± 0.21 under setting [1] and 5.02 ± 0.45 under setting [2].

GGSSTSERCLLNNSLWKKNKTICK [NLN]: the protein stability index is, setting by setting: under setting [1], 3.44 ± 0.16; under setting [2], 3.47 ± 0.33.

For the sequence GGVCCTVTLNFNVPGEFKQDVTVV [GFOD1], the protein stability index amounted to 2.94 ± 0.25 under setting [1] and 2.99 ± 0.16 under setting [2].

Regarding GHGEPDVLKDELQLYGDAPGEVVP [TMEM40], the protein stability index under setting [1] amounted to 5.36 ± 0.07 and the protein stability index under setting [2] turned out to be 5.35 ± 0.23.

Consider GHQPGTGPGDGPPEIAQNFSAPDP [SMTNL2], for which the protein stability index was determined as 5.23 ± 0.098 under setting [1] and 5.46 ± 0.15 under setting [2].

Regarding GHSPARAGKQRMKEKEQENERKVA [DDIT3], the protein stability index by setting is: under setting [1], 5.39 ± 0.4; under setting [2], 5.43 ± 0.37.

GHVEMVNLLLAKGANINAFDKKDR [ANKRD44]: the protein stability index turned out to be 3.41 ± 0.19 under setting [1] and 3.38 ± 0.3 under setting [2].

The sequence GIAILVGSNDRVQGVISQLEDTCK [TRIM55] showed a protein stability index under setting [1] of 2.3 ± 0.15 and a protein stability index under setting [2] of 2.43 ± 0.37.

In turn, GIELMEVDPIGHLYIFATCLGLSY [MAGEA3] came in with a protein stability index under setting [1] of 2.72 ± 0.9 and a protein stability index under setting [2] of 2.85 ± 1.2.

Regarding GIGHKVDAVFMKDGFFYFFHGTRQ [MMP1], the protein stability index runs as follows: under setting [1], 2.4 ± 0.94; under setting [2], 2.13 ± 0.23.

With GIHLALVELLKNLTKYPTDRDSIW [INTS4], the protein stability index stood at 2.77 ± 0.72 under setting [1] and 2.75 ± 1 under setting [2].

On to GILTFLAVLGRYVPGLLLSYLMLV [RETREG3], for which the protein stability index is, setting by setting: under setting [1], 3.42 ± 0.28; under setting [2], 2.95 ± 0.72.

Regarding GIPNAIISVEGINHDIRTANDGDY [CPXM2], the protein stability index came to 4.55 ± 0.2 under setting [1] and 4.71 ± 0.16 under setting [2].

On to GKAVVSHSKGHKSSRQEKRPLCAQ [ELOA2], for which the protein stability index runs as follows: under setting [1], 4.61 ± 0.29; under setting [2], 4.64 ± 0.44.

For the sequence GKELAGTMDGEGTLFQTESPQSGS [PBXIP1], the protein stability index under setting [1] was 5.42 ± 0.43 and the protein stability index under setting [2] is 5.38 ± 0.17.

GKEVKVNWATTPSSQKKDTSSSTV [TIA1]: the protein stability index under setting [1] was determined as 4.76 ± 0.21 and the protein stability index under setting [2] was 4.92 ± 0.36.

As for GKVLGKGGFAKCYEMTDLTNNKVY [PLK2], the protein stability index runs as follows: under setting [1], 2.73 ± 0.11; under setting [2], 2.87 ± 0.34.

In turn, GLDGYRGYSLADWVCLAYFTSGFN [SPACA3] had a protein stability index under setting [1] of 3.1 ± 1.2 and a protein stability index under setting [2] of 2.81 ± 0.7.

In the case of GLGVLRALGSRGWEPFDWGRLLEA [FANCE], the protein stability index by setting is: under setting [1], 2.88 ± 0.2; under setting [2], 2.47 ± 0.042.

For the sequence GLVPSEKPPMMPQAQPAIPRPNRL [C2CD2L], the protein stability index by setting is: under setting [1], 4.65 ± 0.21; under setting [2], 4.47 ± 0.068.

GNFQGIRFHYDRNPGTDAVAQTSL [FATE1]: the protein stability index is, setting by setting: under setting [1], 3.38 ± 0.22; under setting [2], 3.42 ± 0.16.

Take GNLGSLEKSVTKDAEGLAARDVQK [INTS4]: the protein stability index turned out to be 5.46 ± 0.089 under setting [1] and 5.42 ± 0.12 under setting [2].

As for GNNEDVSFSRPADLDLIQSTPFKP [MFF], the protein stability index runs as follows: under setting [1], 4.36 ± 0.059; under setting [2], 5.06 ± 0.56.

For the sequence GPLPPAPAMVRISKPKTFQAYLDD [YPEL3], the protein stability index runs as follows: under setting [1], 3.73 ± 0.18; under setting [2], 4.33 ± 0.37.

As for GPVQVVLVQKDQHSFELDEKALAS [ATL3], the protein stability index came out at 3.65 ± 0.18 under setting [1] and 4.06 ± 0.2 under setting [2].

Turning to GQGLKSYMTKPSKSLLPHLKTGNS [RTP4], the protein stability index was 3.62 ± 0.16 under setting [1] and 3.63 ± 0.25 under setting [2].

Regarding GRAENGERSDLEEDNEREGTENGA [ZC3H15], the protein stability index runs as follows: under setting [1], 5.57 ± 0.068; under setting [2], 5.57 ± 0.16.

In the case of GRPIPGTSTRYEQPKCDNTARAHP [SMOC2], the protein stability index under setting [1] turned out to be 4.76 ± 0.4 and the protein stability index under setting [2] is 4.78 ± 0.18.

As to GRSRLYHDGKNQPGVAYPAFLGPD [SPSB4], the protein stability index came to 3.84 ± 0.23 under setting [1] and 3.78 ± 0.19 under setting [2].

With GSDLGGPLPTDPMLGLALGGLVVS [TSPAN10], the protein stability index amounted to 2.88 ± 0.2 under setting [1] and 2.66 ± 0.19 under setting [2].

For the sequence GSEMGLSSHLQSSKAGPTRIFTSN [KLHL13], the protein stability index is, setting by setting: under setting [1], 3.78 ± 0.17; under setting [2], 3.77 ± 0.23.

For the sequence GSIGVWHYICPRLGGIGFSSCIVC [SLC6A17], the protein stability index came to 2.58 ± 0.054 under setting [1] and 2.41 ± 1.2 under setting [2].

As for GSKNVFSTFRTPAVLFTGIVALYI [ATL3], the protein stability index reads like this: under setting [1], 3.11 ± 0.7; under setting [2], 2.67 ± 0.57.

GSRAGASSFSDPFFVVETLCIIWF [KCNA3]: the protein stability index was 3.04 ± 0.93 under setting [1] and 2.53 ± 0.75 under setting [2].

For GSRLAEFGAAGVNRLSIGLQSLDD [RSAD1], the protein stability index under setting [1] was found to be 4.22 ± 0.48 and the protein stability index under setting [2] is 4.09 ± 0.34.

Take GTLLFYIGGHLVRDNDHPDHSSRE [FUT8]: the protein stability index is, setting by setting: under setting [1], 2.3 ± 0.59; under setting [2], 2.55 ± 0.58.

GTLTPRMTTDFDLSLDNSPLLQSI [TRIM9] showed a protein stability index under setting [1] of 3.43 ± 0.28 and a protein stability index under setting [2] of 3.48 ± 0.36.

GTYSQALNDAKRELRFLLVYLHGD [FAF2] showed a protein stability index under setting [1] of 2.41 ± 0.47 and a protein stability index under setting [2] of 2.16 ± 0.32.

GVIATKQFSRGDFVVEYHGDLIEI [KMT5A]: the protein stability index is, setting by setting: under setting [1], 2.37 ± 0.31; under setting [2], 1.68 ± 0.17.

GYLDYRKKAIKDLGISPSTCSFNP [GLT8D2]: the protein stability index was found to be 2.85 ± 0.22 under setting [1] and 2.89 ± 0.34 under setting [2].

As for GYLLSFHTPGGQNQEILLPGGITS [TNXB], the protein stability index is, setting by setting: under setting [1], 2 ± 0.36; under setting [2], 2 ± 0.41.

In the case of GYPVSSAFAFQNTFPHSISAKNTS [SASS6], the protein stability index came out at 3.19 ± 0.43 under setting [1] and 3.37 ± 0.21 under setting [2].

HEDLLTRIGEATKPDGTVEQIGHI [NET1] yielded a protein stability index under setting [1] of 4.95 ± 0.13 and a protein stability index under setting [2] of 4.93 ± 0.17.

Regarding HELTAKYLNYYQGMLDVADESLTD [P3H4], the protein stability index is, setting by setting: under setting [1], 4.01 ± 0.3; under setting [2], 3.89 ± 0.48.

In the case of HGLWDSLVYDVEVKSHLLDYVMTT [TRIP13], the protein stability index runs as follows: under setting [1], 2.28 ± 0.32; under setting [2], 2.2 ± 0.34.

For HGPISEVLLIKDRTSKSRGFAFIT [RBMY1A1], the protein stability index under setting [1] was 2.83 ± 0.36 and the protein stability index under setting [2] is 2.66 ± 0.91.

Take HILAKNYFSQVPVLASFILDDGEI [IQUB]: the protein stability index runs as follows: under setting [1], 2.2 ± 0.51; under setting [2], 1.96 ± 0.42.

Turning to HKESKMTIFEKENFIGRQWEISDD [CRYBA1], the protein stability index amounted to 4.13 ± 0.4 under setting [1] and 4.07 ± 0.3 under setting [2].

As to HLNAIRGLPGSFIKEVQKGGPADL [PDZK1], the protein stability index amounted to 3.56 ± 0.34 under setting [1] and 3.99 ± 0.19 under setting [2].

With HNLVVACEIQVRTLASAGGPDNLV [ADD1], the protein stability index under setting [1] is 2.51 ± 0.51 and the protein stability index under setting [2] is 2.38 ± 0.52.

Regarding HNRYTENSLRGVILDIHFLSQADF [FUT8], the protein stability index worked out at 2.55 ± 0.67 under setting [1] and 2.41 ± 0.43 under setting [2].

For the sequence HNTTEAPGPHSAKQDSYEQGDSSQ [ZC2HC1C], the protein stability index is, setting by setting: under setting [1], 5.45 ± 0.29; under setting [2], 5.46 ± 0.32.

Regarding HPGFKDNVYRKRRKYFADLAMNYK [TPH1], the protein stability index was 2.61 ± 0.23 under setting [1] and 3.01 ± 0.48 under setting [2].

For HRLMTDARRRVCHTEDFQKEEGTV [CPXM2], the protein stability index runs as follows: under setting [1], 4.76 ± 0.26; under setting [2], 4.8 ± 0.24.

In the case of HRRDGKWQIVHFHRSGAPSVLPH [CAMK2A], the protein stability index by setting is: under setting [3], 3.2 ± 0.21; under setting [4], 3.34 ± 0.24.

In the case of HSDMAAIVKAMASPESGLEVRDRM [DVL3], the protein stability index by setting is: under setting [1], 3.81 ± 0.23; under setting [2], 3.81 ± 0.03.

For HSRKTVLIKTIETRNGEVVTESQK [PRPH], the protein stability index was found to be 4.71 ± 0.27 under setting [1] and 4.8 ± 0.32 under setting [2].

As to HYFPVMKKCCIPETRRRMEMAFNT [NLN], the protein stability index reads like this: under setting [1], 2.35 ± 0.43; under setting [2], 1.84 ± 0.27.

For the sequence IAFDGVVGSGGRRDSTARRPRPQG [RTN2], the protein stability index by setting is: under setting [1], 4.29 ± 0.17; under setting [2], 4.26 ± 0.22.

For IALDLTPVIEELTNAGFLQTESEL [FAN1], the protein stability index was 2.46 ± 0.26 under setting [1] and 2.57 ± 0.37 under setting [2].

Regarding IDFSPYLEPLGAPQAPAPATATDT [CEBPB], the protein stability index by setting is: under setting [1], 4.42 ± 0.31; under setting [2], 4.35 ± 0.37.
